Experimental findings from US20140227251A1 (AbbVie / Abbott, published 2014) are described below.

The target in the test is T1, Human TNF-α (R&D Systems) (human, UniProt P01375 77-233, labeled with Alexa Fluor 647 in the FACS assays).
T1 construct: also called Alexa Fluor 647-labeled TNF-α; TNF-α-AF647
In words: surface plasmon resonance (Biacore).

T1 sequence (P01375 77-233 limits assumed): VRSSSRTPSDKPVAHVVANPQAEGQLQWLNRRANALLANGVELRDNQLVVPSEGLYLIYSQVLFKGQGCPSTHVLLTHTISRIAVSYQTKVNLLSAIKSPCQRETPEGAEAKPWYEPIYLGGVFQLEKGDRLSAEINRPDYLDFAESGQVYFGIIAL

B1: D2E7 combination variant Y32K/SS-R30I (antibody, V domains shown)
VH: not shown
VL: DIQMTQSPSSLSASVGDRVTITCRASQSIINYLSWYQQKPGKAPKLLIYAASTLQSGVPSRFSGSGSGTDFTLTISSLQPEDVATYYCQRYNRAPYTFGQGTKVEIK
notes: VL-SS backbone = G28S and A34S in CDR-L1 (Kabat); Expressed and purified variant antibody; also called Y2K in CDR-H1 with G5S, R7I and A11S in CDR-L1
Turning to B1, the binding result was “binds”.

B2: D2E7 combination variant Y32K/SS-R30T (antibody, V domains shown)
VH: not shown
VL: DIQMTQSPSSLSASVGDRVTITCRASQSITNYLSWYQQKPGKAPKLLIYAASTLQSGVPSRFSGSGSGTDFTLTISSLQPEDVATYYCQRYNRAPYTFGQGTKVEIK
notes: VL-SS backbone = G28S and A34S in CDR-L1 (Kabat); Expressed and purified variant antibody; also called Y2K in CDR-H1 with G5S, R7T and A11S in CDR-L1
Turning to B2, the binding result is listed as “binds”.
